Source: patent US20250073202A1, “METHODS TO TREAT RENAL DISORDERS USING CALCIUM CHANNEL INHIBITORS” (The Trustees of Indiana University, priority 2018, published 2025)

Columns and labels:
[1] = tested on: AKI-primed CD4+ cells; assay: In vitro stimulation of AKI-primed kidney CD4+ cells with Ang II and elevated Na+, IL17 response; format: cell-based, rat; settings: inhibitor 10 μM; Ang II 10^-7 M and 170 mM Na+; 12-14 hours; cells 7 days post I/R
Method: Total RNA was obtained from kidney using Trizol and the Zymogen RNA extraction kit and cDNA was prepared using MMLV enzyme (Invitrogen, Carlsburg, CA). Quantitative real time PCR (qPCR) using gene specific primers was performed using ABI 7500 (Applied Biosystems, Foster City, CA). mRNA values were calculated using 2^−ΔΔCt. Specific primers sequences for IL-6 (catalog #Rn01410330_m1), Kim-1 (#Rn00597703_m1) and IL17 (Rn01757168_m1) were purchased from ThermoFisher (Waltham, MA).
(§1) To evaluate protein expression of IL17 or Orai1, Orai2 or Orai3, cells were restimulated with PMA and ionomycin for 6 hours in the presence of monensin (Golgistop, 1 μg·ml, BD Biosciences) permeabilized with saponin ([…]) and stained with relevant antibody. Cells were scanned using flow cytometry (FACSCalibur, BD Biosciences, San Jose, CA) and scans were analyzed using Flowjo software (Tree Star, Ashland, OR).
CD4+T cells were isolated using the MACS Pan-T cell microbead separation kit (Miltenyl, Glabach, Germany). T cells were stimulated with plate bound anti-CD3 (precoated with 2 μg/mL) and soluble anti-CD28 (1 μg/mL). Cells (2.5×10^5 in 0.25 ml) were incubated 12-14 hours at 37° C. in RPMI medium supplemented with 10% FBS (Invitrogen) in a 48-well plate. Cells were challenged with Ang II (Sigma, 10^−7M) and raising the extracellular Na+ from 140 mM to 170 mM, using a 1 M NaCl solution. Calcium channel inhibitors 2ABP (10 μM, Sigma) AnCoA4 (10 μM, Millipore, Burlington, MA) and YM58483/BTP2 (10 μM) were included to evaluate effects on IL-17.

[2] = tested on: human blood CD4+ cells; assay: In vitro stimulation of human blood CD4+ cells from AKI patients with elevated sodium, IL17 response; format: cell-based; settings: 170 mM Na+, overnight (~12 hours)
Method: For in vitro stimulation of human blood cells, primary T cells were isolated from fresh blood using Straight whole blood CD4 kit from Miltneyli Biotech (Miltenyli, San Diego, CA) according to manufactures' protocol. CD4+T cells were plated at a density of 1×10^6 cells/mL in RPMI medium supplemented with FBS. Cells were stimulated with human anti-CD3/CD28 dynabeads (Gibco; Catalogue no 11161D) along with labeled treatment overnight (˜12 hours). T cells were harvested and incubated with monensin for 6 hours, prior to staining for IL-17 (Table 4).

[3] = tested on: AKI-primed CD4+ cells; assay: Fura-2 imaging of intracellular Ca2+ responses in AKI-primed CD4+ cells; format: cell-based, rat; settings: superfusate with Ang II and elevated Na+; to levels similar to sham
Method: To assess Ca^2+ responses, fura2 imaging was performed. Briefly, isolated CD4+ T cells were loaded with fura-2AM (2.5 μM, Sigma, St. Louis, MO) for 45 min, washed, placed on poly-lysine (Sigma) coated coverslips and placed in a superfusion chamber with physiological salt solution (PSS) containing 2 mM Ca^2+. The chamber was mounted on an inverted epifluorescence microscope and signal measured with alternating excitation at 340 and 380 nm and emission at 510 nm using the InCa^2+-imaging system (Intracellular Imaging Systems, Cincinnati, OH). Data were acquired at 1.5 Hz and representative tracings were smoothed to the 10 nearest neighbor points using GraphPad Prism. For analysis, an increase in signal intensity of >1 standard deviation from baseline was considered a positive response. Frequency of responding cells was determined from an average 53±19 cells for each animal.

[4] = tested on: renal ischemia reperfusion injury; assay: Bilateral renal ischemia/reperfusion (I/R) injury in rats, 24 hours after reperfusion (Study II); format: in vivo, rat
Method: All studies used male Sprague-Dawley rats (250-300 g) that were purchased from Envigo (Indianapolis, IN). Rats were anesthetized with a cocktail of ketamine (100 mg·kg^−1, KetoVed, Vedco Inc, St. Joseph, MO) and xylazine (50 mg·kg^−1, AnaSed, Lloyd Inc, Shenandoah IA). Rats were placed on a heated surgical table to maintain body temperature. A midline incision and either unilateral (left) or bilateral renal ischemia (as indicated in Results) was induced by applying micro-aneurism clamps on the renal pedicles for a period of 40 min. Re-establishment of perfusion was verified by visual examination following removal of the clamps. Rats were provided post-operative analgesia using buprenorphine-SR (1 mg·kg^−1).
Rats were allowed to recover for various periods of time as described in the Results. In Study I, lymphocytes were studied in vitro after recovery for either 2 or 7 days following I/R or sham surgery for evaluation of function in vitro or for FACS analysis. In Study II, the effect of SOCE on kidney injury was studied with the inhibitor YM58483/BPT2 (N-[4-[3,5-Bis(trifluoromethyl)-1H-pyrazol-1-yl]phenyl]-4-methyl-1,2,3-thiadiazole-5-carboxamide; Tocris/Bio-Techne Minneapolis, MN). Rats were pretreated p.o. 2-3 hours prior to surgery with YM58483.BPT2 (1 mg·kg^−1) in sugar-free chocolate pudding following dilution in 100% EtOH, at, a dose previously shown to affect T cell activation in rats. In some experiments, rats were also treated with the IL17Rc (150 ng/day i.p; R&D Systems). In addition, one experiment utilized a model of rhabdomyolysis, induced by injection of 50% glycerol (10 ml/kg) into the hindlimb muscle of rats following 16 hours of water restriction.
To measure creatinine, tail blood was collected in heparin containing tubes and centrifuged to collect plasma. Plasma creatinine was measured using a Pointe Scientific Analyzer and Creatinine Assay reagents using methods outlined by the manufacturer (Pointe Scientific, Canton MI). Urine was collected for 24 hours by placing rats in metabolic cages and urine volume was determined gravimetrically. Urine creatinine was measured using a colorimetric assay adopted for microplate readers. Creatinine clearance was measured using UCr*V/PCr. […]
Freshly harvested kidneys were minced and digested in liberase (2 μg/ml. Roche, Indianapolis IN) for 15 min at 37° C. using Gentle MACs (Miltenyli, San Diego, CA). The digested tissue was filtered through a 100-μm mesh and washed with RPMI containing 10% fetal bovine serum (Invitrogen). Mononuclear cells were isolated using Percol (Sigma) density gradient centrifugation.
as §1
The effect of SOCE on early ischemic kidney injury was studied with the inhibitor YM58483/BPT2 (N-[4-[3,5-Bis(trifluoromethyl)-1 H-pyrazol-1-yl]phenyl]-4-methyl-1,2,3-thiadiazole-5-carboxamide; Tocris/Bio-Techne Minneapolis, MN). Rats were pretreated 2-3 hours prior to surgery, p.o. in sugar-free chocolate pudding following dilution in 100% EtOH, at 1 mg·kg^−1, a dose previously shown affect T cell activation in rats. To evaluate if SOCE influences Th17 cells in AKI, rats were fed YM58483/BPT2 approximately 2 hours prior to […] and reperfusion. […] YM58483/2BPT2 also attenuated the infiltration of total CD4+ and CD8+ T-cells, B-cells, and dendritic cells following I/R (FIGS. 3C, 3D, 3E, and 3F).

[5] = 24 hours following ischemia reperfusion, mean ± S.E.

| Molecule | increase in IL17+ cells (IL17 protein, FACS) [1] | increase of IL17 mRNA [1] | IL17 response to elevated extracellular sodium [2] | percentage of Ca2+-responding cells [3] | infiltration of total CD4+ T-cells in kidney (vs vehicle) ([4]; 24 hours following I/R) | kidney CD4+/IL17+ cells (vs vehicle) ([4]; 24 hours following I/R) | CD4+ renal lymphocyte content [4, 5] [cells/gram] | CD4+/IL-17+ cells [4, 5] [cells/gram] | CD8+ cells renal lymphocyte content [4, 5] [cells/gram] | CD8+IL-17+ cells [4, 5] [cells/gram] | Serum Creatinine [4, 5] [mg/dL] | Total IL-17+ cells [4, 5] [cells/gram] |
| --- | --- | --- | --- | --- | --- | --- | --- | --- | --- | --- | --- | --- |
| NCCOB(c1ccccc1)c1ccccc1 [2-ABP, 2-aminoethoxydiphenyl borate] | completely blocked | completely blocked | – | – | – | – | – | – | – | – | – | – |
| COc1cc2c(cc1-c1coc3c4c(ccc3c1=O)OC(C)(C)C=C4)OCO2 [AnCoA4] | completely blocked | completely blocked | inhibited | significantly attenuated | – | – | – | – | – | – | – | – |
| IL-17Rc: the IL17Rc receptor antagonist (R&D Systems), 150 ng/day i.p. (protein, UniProt Q8NAC3 21-538, looked up, extracellular domain) extracellular domain: LERLVGPQDATHCSPVSLEPWGDEERLRVQFLAQQSLSLAPVTAATARTALSGLSGADGRREERGRGKSWVCLSLGGSGNTEPQKKGLSCRLWDSDILCLPGDIVPAPGPVLAPTHLQTELVLRCQKETDCDLCLRVAVHLAVHGHWEEPEDEEKFGGAADSGVEEPRNASLQAQVVLSFQAYPTARCVLLEVQVPAALVQFGQSVGSVVYDCFEAALGSEVRIWSYTQPRYEKELNHTQQLPDCRGLEVWNSIPSCWALPWLNVSADGDNVHLVLNVSEEQHFGLSLYWNQVQGPPKPRWHKNLTGPQIITLNHTDLVPCLCIQVWPLEPDSVRTNICPFREDPRAHQNLWQAARLQLLTLQSWLLDAPCSLPAEAALCWRAPGGDPCQPLVPPLSWENVTVDKVLEFPLLKGHPNLCVQVNSSEKLQLQECLWADSLGPLKDDVLLLETRGPQDNRSLCALEPSGCTSLPSKASTRAARLGEYLLQDLQSGQCLQLWDDDLGALWACPMDKYIHKR | – | – | – | – | significantly reduced | significantly reduced | 19229 ± 3175 | 1567 ± 294 | 4356 ± 559 | 251 ± 118 | 3.96 ± 1.2 | 8447 ± 1753 |
